Source: patent US9301917B2, “Sustained-release pharmaceutical composition” (Kyoto University, priority 2010, dated 2016)

Experiments:
[1] = Influence of sugar on drug release from collagen in vitro (Example 1); format: physicochemical; conditions: lysozyme 2 mg/mL, atelocollagen 3% [w/v], sucrose 0.05 M vs no sucrose; PBS external liquid, 37° C., HPLC
Procedure: The influence of a sugar on drug release from a collagen was confirmed through use of lysozyme (final concentration: 2 mg/mL) (Sigma-Aldrich Corporation) as a drug.
Lysozyme was dissolved in a physiological buffer (PBS, pH 7.4) containing sucrose (final concentration: 0.05 M) or a physiological buffer containing no sucrose. After that, the solution and an atelocollagen solution (final concentration: 3% [w/v]) (product name: KOKEN ATELOCOLLAGEN IMPLANT) were mixed and formulated.
Conditions for the measurement were as follows: • Initial eluent: 30% acetonitrile solution containing 0.1% triethylamine (TEA) • Final eluent: concentration-gradient elution with 45% acetonitrile solution containing 0.1% TEA • rate: 1 mL/min • Elution time: 30 minutes • Detection wavelength: 220 nm

[2] = Influence of formulation procedure on drug release rate in vivo (Example 3); conditions: 100 μL to dorsal subcutis of mice, 1 hour; lysozyme 5 mg/mL, sucrose 0.25 M, atelocollagen 3% [w/v]; different mixing orders
Procedure: The following three kinds of ingredients were mixed in different orders and formulated as shown in the following items a) to d): lysozyme (MW: 14 kDa); sucrose; and atelocollagen (product name: KOKEN ATELOCOLLAGEN IMPLANT).
Each of the formulations was prepared so that the final concentrations of lysozyme, sucrose, and atelocollagen were 5 mg/mL, 0.25 M, and 3% [w/v], respectively.
100 μL of each of the formulations according to the above-mentioned items a) to d) were administered to the dorsal subcutis of mice. One hour later, the formulation that underwent gelation at a body temperature was taken out, and the amount of the lysozyme remaining in the gel was measured by HPLC to calculate the release amount of the lysozyme.

Substance: lysozyme
- amount of the lysozyme released into the external liquid [1]: large in the case of containing sucrose as compared to the case of containing no sucrose
- release amount of the lysozyme in vivo [2]: varied depending on a change in mixing procedure
